Assays:
[1] = tested on: CC(C)C[C@H](N)C(=O)Nc1ccc([N+](=O)[O-])cc1; assay: purified protein; details: 3 mM Co2+, pH 8.5, 40 °C (abstract: 45 °C optimum)
[2] = target: MesoAmp, aminopeptidase M29 (Aminopeptidase T) from Mesorhizobium SEMIA 3007 (Mesorhizobium SEMIA 3007); assay: SEC; Hiload16/600 Superdex 200, 100 mM Tris-HCl pH 8.0, 200 mM NaCl, 5% (w/v) glycerol, 0.5 mL/min; native mass estimated from a calibration curve of standard proteins and compared with the mass on SDS-PAGE

Row | stoichiometry N [2] | Substance | Km [1] [µM] | kcat [1] [s⁻¹]
1 |  | MesoAmp (Mesorhizobium sp. SEMIA 3007) | 236.4 ± 18.2 | 712.1 ± 88.12
2 | 2 | MesoAmp, aminopeptidase M29 (Aminopeptidase T) from Mesorhizobium SEMIA 3007 (enzyme) |  | 

From paper PMC5587760, “Halotolerant aminopeptidase M29 from Mesorhizobium SEMIA 3007 with biotechnological potential and its impact on biofilm synthesis” (Scientific Reports, 2017)
